Assay results as given in the supplement of paper PMC9170038.

System: MS2 coat protein
Experiment: apparent KD of MS2 coat protein; designed switch direction (-1 OFF switch, 1 ON switch): -1; higher = weaker reporter binding
How it was run: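 An oligonucleotide input, 200 uM small-molecule ligand, or no input was present during titration of SNAP-549-labelled MS2 coat protein, which was doubled from 0.7 or 1.5 nM to 3 µM. Designed RNA switches had been transcribed on Illumina chips by stalled E. coli RNA polymerase. Apparent KD per design is the median over clusters of curves fitted to normalised cluster fluorescence.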

[1] = input ligand: microRNA oligo, concentration not stated
[2] = Eterna round: R95, input ligand: FMN 200 uM
[3] = Eterna round: R95, input ligand: microRNA oligo, concentration not stated
[4] = Eterna round: R95, input ligand: none

| Sequence | apparent KD of MS2 coat protein (input ligand: FMN 200 uM) [nM] | apparent KD of MS2 coat protein [1] [nM] | apparent KD of MS2 coat protein (input ligand: none) [nM] | apparent KD of MS2 coat protein [2] [nM] | apparent KD of MS2 coat protein [3] [nM] | apparent KD of MS2 coat protein [4] [nM] |
| --- | --- | --- | --- | --- | --- | --- |
| UCUCGCGGGCAAGGAUAUCCUACGUUGUUCUGGCCCGUGCAUGUUACAUGAGGAUCACCCAUGUGGGAGAAGGUGCACCAGGGC [Design 38] (Eterna round: R96, puzzle: Exclusion NG 2) | 56.9 | 30.3 | 52.5 | – | – | – |
| CCGUGGCAAGGAUAUACAGAGGAGAGGAAGGCAAGAGGUGGACAUGAGGAUCACCCAUGUAGAAGGUGCAGAGC [JR_Exclu2_Sub026] (puzzle: Exclusion 2) | – | – | – | 130 | 124 | 160 |
| UGUGCUCUAGGAUAUGCGUAAGCUGAUACGUCAGCAGGUCUACAUGAGGAUCACCCAUGUAGAAGGAGAGUACU [jl-ex2-4.00] (Eterna round: R97, puzzle: Exclusion 2) | 18.6 | – | 20.8 | – | – | – |
| AGAGAGUCAGGAUAUCGAAGGUAGAGAAAAGGAGAGAGGUACGAGAAGGGACAUGAGGAUCACCCAUGUAGGUG [JR_Exclusion4)Sub014] (puzzle: Exclusion 4) | – | – | – | 526 | 286 | 381 |
| UCCUCACAUGAGGAUCACCCAUGUGAGGAUAUCAUGCUUCGUAGUAAACUACGAAGUGUGAGAAGGCGCAUGGC [Omei Ex1 D16] (Eterna round: R97, puzzle: Exclusion 1) | 20.4 | – | 16.2 | – | – | – |
| GGCACACAUGUAGGAUAUCUGCACGUGUAGUGCAGAGAAGGACAUGAGGAUCACCCAUGUAAUUAAGAUCAAUUAUUAAGUGCC [ENG1/3-A3] (Eterna round: R96, puzzle: Exclusion NG 1) | 481 | 48.6 | 58.9 | – | – | – |
| UAUUUACAUGAGGAUCACCCAUGUCAGGAUAUGCGUCGAUCGUCGAAAGACGAUAGCCGCAGAAGGGACAAUAU [LRO-Excl01-20 mod derived from EliFisker 4.24] (Eterna round: R97, puzzle: Exclusion 1) | 246 | – | 83.1 | – | – | – |
| AACCCUUGUGUUAGGAUAUGUCACUACCAUAUGCGACAGAAGGAACAUGAGGAUCACCCAUGUGAGUUAGCCAA [Quesveququ] (puzzle: Brourd's mod of Exclusion 4) | – | – | – | – | 36 | – |
| AAUACAAUAAUUAAAGAGAUAGUACAUUAUACAAGUGAAACAUGAGGAUCACCCAUGUCCUCAUUUGCUCGUCUAAU [Hunting Buffalo with a BB Gun] (puzzle: Sensor v3, turn-off variant 2) | – | – | – | 334 | 142 | 435 |
| AGUAGGAGAGGAUAUACAAGAAGUCGAAAGACUUCAACUCAACAUGAGGAUCACCCAUGUAGAAGGCUCCUACA [Omei Ex2 BD A5] (Eterna round: R97, puzzle: Exclusion 2) | 83.3 | – | 17.9 | – | – | – |
| AAGAAACAUGAGGAUCACCCAUGUGAGGAUAUGAUCAAGAAAAGAAAAGAAAGAAGACUCAGAAGGCACAAAGG [salish99-ex1_r3_071] (puzzle: Exclusion 1) | – | – | – | 162 | 210 | 548 |
| CGGAUACAUGAGGAUCACCCAUGUGAGGAUAUCGUACGUUCGUCGAUAGACGAUCGUACGAGAAGGCAUGACCG [Mat - Exclusion 1 - Eli Mod - D34] (Eterna round: R97, puzzle: Exclusion 1) | 71.3 | – | 200 | – | – | – |
| GGGUGACAUGAGGAUCACCCAUGUCAGGAUAUGAUUCUGCUUGGGAAACCGAGUAGAAUCAGAAGGGACAUCCC (Eterna round: R97, puzzle: Exclusion 1) | 324 | – | 54.3 | – | – | – |
| UUUAGUUCAGGAUAUGUAGAAAUUAACAUGAGGAUCACCCAUGUAGAUCCUGAAUUAACUACAGAAGGGAACAUUU [JL-ex5-4.43 Brourd mod] (Eterna round: R97, puzzle: Exclusion 5) | 51.3 | – | 15.7 | – | – | – |
| CAUACUGAAGUUAGGAUAUGCGGCCGAAUACGGAUGUAGAAGGGACAUGAGGAUCACCCAUGUAGAUAGUAAAG [EX-4 Malc #15] (puzzle: Brourd's mod of Exclusion 4) | – | – | – | 20.8 | 20.1 | 20.5 |
| AGGGAGCGAGGAUAUACAGAGUAGGAAACUACUCCCUCAGUACAUGAGGAUCACCCAUGUAGAAGGCGCCCGAA [EX2 A.1] (Eterna round: R97, puzzle: Exclusion 2) | 38 | – | 23.8 | – | – | – |
| UUUUUGUGAGGAUAUUAGUAGUAAAUAAAUAAAAUUACUACUGAGAAGGCACAUGAGGAUCACCCAUGUUCCUC [salish99_ex4_r3_068] (puzzle: Exclusion 4) | – | – | – | – | 33.2 | – |

| Sequence | apparent KD of MS2 coat protein (input ligand: FMN 200 uM) [nM] | apparent KD of MS2 coat protein [1] [nM] | apparent KD of MS2 coat protein (input ligand: none) [nM] | apparent KD of MS2 coat protein [2] [nM] | apparent KD of MS2 coat protein [3] [nM] | apparent KD of MS2 coat protein [4] [nM] |
| --- | --- | --- | --- | --- | --- | --- |
| GGUCCACAUGAGGAUCACCCAUGUAAUAACAUGCAGCGCAGGAAGGAUAUGCCCGAACAAAGCCAGCAGAAGGUCCAUUAACAU [Eternabot solution 7] (Eterna round: R96, puzzle: Exclusion NG 3) | 166 | 84.5 | 128 | – | – | – |
| CUAUAGUAUGUAGGAUAUCGGUCAGUUUCUGAUCGAGAAGGACAUGAGGAUCACCCAUGUAAGGCUACCGGUUUCUGGUGGCCG [JL ENG1 3.54] (Eterna round: R96, puzzle: Exclusion NG 1) | 61.6 | 18.5 | 23.6 | – | – | – |
| UUUGUUUAUGUAGGAUAUGCCUGGCGUGCCUUUGCAGAAGGACAUGAGGAUCACCCAUGUAACAUGAGGCUCACCCAUGUCGCG [salish99_ExNG1_r04_112] (Eterna round: R96, puzzle: Exclusion NG 1) | 285 | 152 | 277 | – | – | – |
| UGCAAGCUUUUAAGAUCCUACAUGAGGAUCACCCAUGUGCUCGUCUUAUAACGUACUGUGACGAAAGUCACGGUACG [JL TOV1 3.95] (Eterna round: R97, puzzle: Sensor, turn-off variant 1) | 105 | – | 114 | – | – | – |
| GGAUGGCGAGGAUAUACAUGAGGAUCACCCAUGUGAGAGAAAUAAGUGAGGAAGAAAAGUAGAAGGCGCAGACG [Mat - Exclusion 3 - Mod of Salish D45] (puzzle: Exclusion 3) | – | – | – | 11.1 | 55.7 | 53.1 |
| CCUCCACAUGAGGAUCACCCAUGUCAGGAUAUCGUGUGUGUUUUUUCGGUCUUUCGUGCGAGAAGGGACGUCUG (puzzle: Exclusion 1) | – | – | – | – | 45.6 | – |
| UUUAAAAUUUCAAUCUUCGCUGGCAAACUUGCGCCAGCUACAUGAGGAUCACCCAUGUUUUUUGCCCGUCUUAUUCU [Inisti] (puzzle: Sensor v3, turn-off variant 2) | – | – | – | 24.3 | 170 | 26.7 |
| ACGGUCAUAGGAUAUACUGGGACAGCGCUAAGGCGCCCUUGACAUGAGGAUCACCCAUGUAGAAGGAUGUCCGA [EX2 C.1] (Eterna round: R97, puzzle: Exclusion 2) | 152 | – | 22.6 | – | – | – |
| AAGAGGAAUAUAGGAUAUGAGGCUGAGACGGCGUCAGAAGGGUAUCCAGAGUUACAUGAGGAUCACCCAUGUGGUGAUUUCUAA [Exclusion NG 1 V2 1] (Eterna round: R96, puzzle: Exclusion NG 1) | 9.2 | 5.74 | 81.2 | – | – | – |
| UAAUACAAGUAGAGAUUCUACAUGAGGAUCACCCAUGUGCUCGUCUUAUAAAGUACUAUCACGAAAGUGAUAGUACA [Mat - Sensor v3 - turn-off var 1 - Eli Mod - D97] (Eterna round: R96, puzzle: Sensor v3, turn-off variant 1) | 22.1 | 124 | 22.4 | – | – | – |
| AACAGUACAGGAUAUACAUGAGGAUCACCCAUGUGAGAAACCACUGGCGUACCAGAAAGUAGAAGGGUACUGGA [Moding Maslow Revisited (73) 29] (Eterna round: R96, puzzle: Exclusion 3) | 307 | 160 | 146 | – | – | – |
| AGCUGUGGCCGAGGAUAUCACGAACCAUGGAAAACCAUGGAACUCAUACAUGAGGAUCACCCAUGUGAGAAGGCGGUCUCAGCA [Eli eng2 - 019] (Eterna round: R96, puzzle: Exclusion NG 2) | – | 27 | – | – | – | – |
| AAGAAACAUGAGGAUCACCCAUGUGAGGAUAUGAAAAAGAAAAGAAAAGAAAGAAGAAUCAGAAGGCACAAAGC [salish99-ex1_r3_090] (Eterna round: R96, puzzle: Exclusion 1) | 24 | 25.3 | 31.2 | – | – | – |
| AACUUCUGAGGAUAUACAUAGAUUUACAUGAGGAUCACCCAUGUUCCUCUAUGUAUAAAUGUAGAAGGCAGAAGAG [Mat - Exclusion 5 - JL Mod - D63] (Eterna round: R97, puzzle: Exclusion 5) | 71.3 | – | 17.2 | – | – | – |
| CAGUACUGAGGAUAUACAUGAGGAUCACCCAUGUGUCCUAUAUUAGGAAACUAGGUAUGUAGAAGGCAGUACUG [Omei Ex3 Mod of Eli 4.27 v5] (Eterna round: R97, puzzle: Exclusion 3) | 485 | – | 340 | – | – | – |
| CUUUUGUGAGGAUAUCAGUAGUAUAAAAUUAAAAUUACUACUGAGAAGGCACAUGAGGAUCACCCAUGUUCCUC [Mat - Exclusion 4 - Mod of Salish - D75] (puzzle: Exclusion 4) | – | – | – | – | 36 | – |
| AAACCGCAUGUCAGGAUAUCCAGUCCGACUAGCUAGGAGAAGGGACAUGAGGAUCACCCAUGUUUCAUGGCUCG [Anveonat] (puzzle: Brourd's mod of Exclusion 4) | – | – | – | 37.6 | 19.6 | 19 |
